Experimental data from doi:10.1101/2025.07.03.662971.

Legend:
[1] = target: FITC labeled GKAP C-terminus peptide (CT12) (human); experiment: fluorescence polarisation
[2] = target: 6xHis-tagged GH1 or CT43 protein (ligand of the Ni-NTA BLI) (rat) (UniProt P97836); experiment: BLI
[3] = target: GST-tagged 12 amino acid ATG13 peptide (human); experiment: BLI
[4] = target: GST-tagged 12 amino acid mTOR peptide (human); experiment: BLI
[5] = target: GST-tagged 12 amino acid ARAP3 peptide (human); experiment: BLI
[6] = target: GST-tagged 12 amino acid βPIX peptide (human); experiment: BLI

Sequence of 6xHis-tagged GH1 or CT43 protein (ligand of the Ni-NTA BLI) (rat) (P97836 807-992): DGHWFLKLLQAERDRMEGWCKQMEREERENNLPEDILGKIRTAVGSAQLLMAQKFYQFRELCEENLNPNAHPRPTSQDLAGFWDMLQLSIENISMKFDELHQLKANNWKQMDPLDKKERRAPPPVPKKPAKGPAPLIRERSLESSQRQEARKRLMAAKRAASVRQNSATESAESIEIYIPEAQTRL

**Q.** How did the Kd [1] turn out when “Shank1-PDZ G734S variant (domain or fragment)” was run?
**A.** 10.6 µM

**Q.** Which results are given for “Shank1-PDZ R679W variant (domain or fragment)”?
**A.** Kd [2]: 14.5 µM; Kd [1]: 325 µM

**Q.** “Shank1-PDZ R736Q variant (domain or fragment)” was tested. Which Kd [1] did it give?
**A.** 2.55 µM

**Q.** With “Shank1-PDZ R743H variant (domain or fragment)” as the substance, how does the Kd [1] read?
**A.** 7.62 µM

**Q.** Which Kd [1] does the source give for “Shank1-PDZ V677M variant (domain or fragment)” here?
**A.** 16.9 µM

**Q.** Which results are given for “wild type Shank1-PDZ domain (domain or fragment)”?
**A.** Kd [2]: 1.5 µM; Kd [3]: 39.1 µM; Kd [4]: 720 µM; Kd [5]: 35.8 µM; Kd [6]: 23.2 µM; Kd [1]: 4.59 µM
